From patent US20200095340A1

What follows are binders tested against biotinylated human DLL3 protein expressed as a human IgG1 fusion protein (human) (UniProt Q9NYJ7) (assay: Octet BLI; biotinylated huDLL3-IgG1 fusion on streptavidin tips; single 50 nM; conditioned medium).
Sequence of biotinylated human DLL3 protein expressed as a human IgG1 fusion protein (human) (Q9NYJ7 other isoform, or with tags, fused parts or gaps): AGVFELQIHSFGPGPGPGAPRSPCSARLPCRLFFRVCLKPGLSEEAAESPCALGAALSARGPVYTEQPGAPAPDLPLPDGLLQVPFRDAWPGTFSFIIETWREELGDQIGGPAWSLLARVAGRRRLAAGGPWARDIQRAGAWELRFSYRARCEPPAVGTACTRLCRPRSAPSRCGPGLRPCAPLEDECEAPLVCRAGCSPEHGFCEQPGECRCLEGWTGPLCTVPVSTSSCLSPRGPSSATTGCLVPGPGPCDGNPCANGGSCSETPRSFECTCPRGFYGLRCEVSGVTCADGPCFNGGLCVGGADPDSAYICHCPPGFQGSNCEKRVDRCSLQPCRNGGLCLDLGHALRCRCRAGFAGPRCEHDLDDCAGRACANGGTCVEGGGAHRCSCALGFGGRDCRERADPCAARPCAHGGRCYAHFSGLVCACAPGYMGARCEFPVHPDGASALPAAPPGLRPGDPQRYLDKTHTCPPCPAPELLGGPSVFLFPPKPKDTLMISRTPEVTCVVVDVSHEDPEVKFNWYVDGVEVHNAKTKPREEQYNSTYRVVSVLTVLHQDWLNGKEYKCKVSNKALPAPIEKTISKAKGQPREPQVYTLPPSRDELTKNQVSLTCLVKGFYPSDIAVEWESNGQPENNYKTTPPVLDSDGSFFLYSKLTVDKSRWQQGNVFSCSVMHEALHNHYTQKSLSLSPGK

Row | Kd [nM] | Binder
1 | 7.6 | anti-DLL3 trispecific protein 2C010 (protein, part only; not given: CD3 binder and albumin binder, part only) chain, part: EVQLVESGGGLVQPGGSLTLSCVASGSTSKINAMGWYRRAPGKQRELVAGISSDRSKVYADSVKGRFTISRDNAKNSVYLQMNSLRAEDTAVYYCYYFRTVAGSSMRYWGQGTLVTVSSGGGGSGGGSGGGGSGGGSHHHHHH
2 | 8.1 | anti-DLL3 trispecific protein 1E04 (protein, part only; not given: anti-CD3 fragment and anti-albumin sdAb, part only) chain, part: EVQLVESGGGLVQPGGSLTLSCVASGSTSRINGMGWYRRAPGKQRELPAGISSDGSKAYADSVKGRFTISRDNAKNSVYLQMNSLRAEDTAVYYCYYFRTASGTSMRYWGQGTLVTVSSGGGGSGGGSGGGGSGGGSHHHHHH
3 | 8.6 | anti-DLL3 trispecific protein 1A07 (protein, part only; not given: anti-CD3 fragment and anti-albumin domain, part only) chain, part: EVQLVESGGGLVQPGGSLTLSCVASGSISSINAMGWYRRAPGKQRELVAGISSDGSKVYADSVKGRFTISRDNAKNSVYLQMNSLRAEDTAVYYCYYFRMVSGSSMRYWGQGTLVTVSSGGGGSGGGSGGGGSGGGSHHHHHH
4 | 8.2 | anti-DLL3 trispecific protein 2A03 (protein, part only; not given: CD3 fragment and albumin sdAb, part only) chain, part: EVQLVESGGGLVQPGGSLTLSCVASGTTSSINAMGWYRRAPGKQRELVAGISSDGSKVYGDSVKGRFTISRDNAKNSVYLQMNSLRAEDTAVYYCYYFRTVSGSAMRYWGQGTLVTVSSGGGGSGGGSGGGGSGGGSHHHHHH
5 | 8 | anti-DLL3 trispecific protein 2A01 (protein, part only; not given: anti-CD3 fragment and anti-albumin sdAb, part only) chain, part: EVQLVESGGGLVQPGGSLTLSCVASGSTSSINAMGWYRRAPGKQRELVAGISSDGSKVVADSVKGRFTISRDNAKNSVYLQMNSLRAEDTAVYYCYYFRTLSGSSMRYWGQGTLVTVSSGGGGSGGGSGGGGSGGGSHHHHHH
6 | 8.5 | anti-DLL3 trispecific protein 1C012 (protein, part only; not given: anti-CD3 and anti-albumin domains, part only) chain, part: EVQLVESGGGLVQPGGSLTLSCVASGITSSINAMGWYRRAPGKQRELVAGISSDGSKVYAGSVKGRFTISRDNAKNSVYLQMNSLRAEDTAVYYCYYFRTVRGSSMRYWGQGTLVTVSSGGGGSGGGSGGGGSGGGSHHHHHH
7 | 8.1 | anti-DLL3 trispecific protein 1C04 (protein, part only; not given: anti-CD3 fragment and anti-albumin sdAb, part only) chain, part: EVQLVESGGGLVQPGGSLTLSCVASGNTSSINAMAWYRRAPGKQRELVAGISSDGSKVYADSVKGRFTISRDNAKNSVYLQMNSLRAEDTAVYYCYYFRTVSGSSMRYWGQGTLVTVSSGGGGSGGGSGGGGSGGGSHHHHHH
8 | 8 | anti-DLL3 trispecific protein 2F07 (protein, part only; not given: anti-CD3 fragment and anti-albumin domain, part only) chain, part: EVQLVESGGGLVQPGGSLTLSCVASGSTSSINAVGWYRRAPGKQRELVAGISSDGSSVYADSVKGRFTISRDNAKNSVYLQMNSLRAEDTAVYYCYYFRTVSTSSMRYWGQGTLVTVSSGGGGSGGGSGGGGSGGGSHHHHHH
9 | 7.8 | anti-DLL3 trispecific protein 1A04 (protein, part only; not given: anti-CD3 fragment and anti-albumin sdAb, part only) chain, part: EVQLVESGGGLVQPGGSLTLSCVASGSTSSINAMGWYRRAPGKQRELVAGISSDGSKVYEDSVKGRFTISRDNAKNSVYLQMNSLRAEDTAVYYCYYFRTVSGSSMRYWGQGTLVTVSSGGGGSGGGSGGGGSGGGSHHHHHH
10 | 8.5 | anti-DLL3 trispecific protein 2E09 (protein, part only; not given: anti-CD3 and anti-albumin domains, part only) chain, part: EVQLVESGGGLVQPGGSLTLSCVASGSVSSINAMGWYRRAPGKQRELVAGISSDGSKVYASSAKGRFTISRDNAKNSVYLQMNSLRAEDTAVYYCYYFRTLSGSSMRYWGQGTLVTVSSGGGGSGGGSGGGGSGGGSHHHHHH
11 | 8.3 | anti-DLL3 trispecific protein 1G07 (protein, part only; not given: anti-CD3 and anti-albumin domains, part only) chain, part: EVQLVESGGGLVQPGGSLTLSCVASGSTSSINAMGWYRRAPGKQRELVAGISSDGSKVVADSVKGRFTISRDNAKNSVYLQMNSLRAEDTAVYYCYYFRTYSGSSMRYWGQGTLVTVSSGGGGSGGGSGGGGSGGGSHHHHHH
12 | 8.1 | anti-DLL3 trispecific protein 3A02 (protein, part only; not given: CD3 fragment and albumin sdAb, part only) chain, part: EVQLVESGGGLVQPGGSLTLSCAASGSSVSFLSLAWYRQAPGKKRELVAGISADGSTAYIDSVKGRFTISRDNAKNSVYLQMNSLRAEDTAVYYCYAYRWRTRYTYWGQGTLVTVSSGGGGSGGGSGGGGSGGGSHHHHHH
13 | 8.3 | anti-DLL3 trispecific protein 4C05 (protein, part only; not given: anti-CD3 and anti-albumin domains, part only) chain, part: EVQLVESGGGLVQPGGSLTLSCAASGSSVSNLSMAWYRQAPGKKRELVAGISADGSTAYIDSVKGRFTISRDNAKNSVYLQMNSLRAEDTAVYYCYAYRWTTRRTYWGQGTLVTVSSGGGGSGGGSGGGGSGGGSHHHHHH
14 | 8.6 | anti-DLL3 trispecific protein 3H010 (protein, part only; not given: anti-CD3 and anti-albumin domains, part only) chain, part: EVQLVESGGGLVQPGGSLTLSCAASGSSVSFLSMAWYRQAPGKKRELVAGISADGSTAYIDSVKGRFTISRDNAKNSVYLQMNSLRAEDTAVYYCYAYRWTTRRTYWGQGTLVTVSSGGGGSGGGSGGGGSGGGSHHHHHH

The remaining lines, values behind:

Row | Binder | Kd [nM]
15 | anti-DLL3 trispecific protein 2G09 (protein, part only; not given: CD3 fragment and albumin sdAb, part only) chain, part: EVQLVESGGGLVQPGGSLTLSCVASGSTSSINAMGWYRRAPGKQRELVAGVSSDGSKVYADSVKGRFTISRDNAKNSVYLQMNSLRAEDTAVYYCYYFRTVSGSSARYWGQGTLVTVSSGGGGSGGGSGGGGSGGGSHHHHHH | 8
16 | anti-DLL3 trispecific protein 1B05 (protein, part only; not given: CD3 binder and albumin binder, part only) chain, part: EVQLVESGGGLVQPGGSLTLSCVASGSTSSINAMAWYRRAPGKQRELVAGISSDGSKVYADSVKGRFTISRDNAKNSVYLQMNSLRAEDTAVYYCYYYRTVSGSSMRYWGQGTLVTVSSGGGGSGGGSGGGGSGGGSHHHHHH | 8
17 | anti-DLL3 trispecific protein 2D05 (protein, part only; not given: anti-CD3 fragment and anti-albumin domain, part only) chain, part: EVQLVESGGGLVQPGGSLTLSCVASGSTSRINAMGWYRRAPGKQRELVAGISSDGSKVYADSVKGRFTISRDNAKNSVYLQMNSLRAEDTAVYYCYYFRTASGSSMRYWGQGTLVTVSSGGGGSGGGSGGGGSGGGSHHHHHH | 8.3
18 | anti-DLL3 trispecific protein 2H06 (protein, part only; not given: anti-CD3 fragment and anti-albumin domain, part only) chain, part: EVQLVESGGGLVQPGGSLTLSCVASGSTSTINAMGWYRRAPGKQRELVAGISSDGSKVYADSVKGRFTISRDNAKNSVYLQMNSLRAEDTAVYYCYYFRTASGSSMRYWGQGTLVTVSSGGGGSGGGSGGGGSGGGSHHHHHH | 7.9
19 | anti-DLL3 trispecific protein 2A08 (protein, part only; not given: anti-CD3 and anti-albumin domains, part only) chain, part: EVQLVESGGGLVQPGGSLTLSCVASGSTKSINAMGWYRRAPGKQRELVAGISSDGSKVYRDSVKGRFTISRDNAKNSVYLQMNSLRAEDTAVYYCYYFRTSSGSSMRYWGQGTLVTVSSGGGGSGGGSGGGGSGGGSHHHHHH | 7.7
20 | anti-DLL3 trispecific protein 1H010 (protein, part only; not given: anti-CD3 fragment and anti-albumin sdAb, part only) chain, part: EVQLVESGGGLVQPGGSLTLSCVASGSTRSINAMGWYRRAPGKQRELVAGISSDGSKVYNDSVKGRFTISRDNAKNSVYLQMNSLRAEDTAVYYCYYFRTVSGSSMRFWGQGTLVTVSSGGGGSGGGSGGGGSGGGSHHHHHH | 8.4
21 | anti-DLL3 trispecific protein 1C011 (protein, part only; not given: anti-CD3 fragment and anti-albumin domain, part only) chain, part: EVQLVESGGGLVQPGGSLTLSCVASGTTSSINAMGWYRRAPGKQRELVAGISSDGSKVYEDSVKGRFTISRDNAKNSVYLQMNSLRAEDTAVYYCYYFRTVSGSSMRYWGQGTLVTVSSGGGGSGGGSGGGGSGGGSHHHHHH | 7.6
22 | anti-DLL3 trispecific protein 2B03 (protein, part only; not given: CD3 fragment and albumin sdAb, part only) chain, part: EVQLVESGGGLVQPGGSLTLSCVASGSTSSINAMGWYRRAPGKQRELVAGISSDGSLVYADSVKGRFTISRDNAKNSVYLQMNSLRAEDTAVYYCYYFTTVSGSSMRYWGQGTLVTVSSGGGGSGGGSGGGGSGGGSHHHHHH | 7.6
23 | anti-DLL3 trispecific protein 1C06 (protein, part only; not given: anti-CD3 and anti-albumin domains, part only) chain, part: EVQLVESGGGLVQPGGSLTLSCVASGSTSIINAMGWYRRAPGKQRELVAGISSDGSKVYEDSVKGRFTISRDNAKNSVYLQMNSLRAEDTAVYYCYYFRAVSGSSMRYWGQGTLVTVSSGGGGSGGGSGGGGSGGGSHHHHHH | 8.3
24 | anti-DLL3 trispecific protein 4C07 (protein, part only; not given: anti-CD3 and anti-albumin domains, part only) chain, part: EVQLVESGGGLVQPGGSLTLSCAASGSKVSFLSMAWYRQAPGKKRELVAGISADGSKDYIDSVKGRFTISRDNAKNSVYLQMNSLRAEDTAVYYCYAYRWTTRLTYWGQGTLVTVSSGGGGSGGGSGGGGSGGGSHHHHHH | 7.5
25 | anti-DLL3 trispecific protein 4G08 (protein, part only; not given: anti-CD3 fragment and anti-albumin sdAb, part only) chain, part: EVQLVESGGGLVQPGGSLTLSCAASGSSVRFLSMAWYRQAPGKKRELVAGISTDGSTDYIDSVKGRFTISRDNAKNSVYLQMNSLRAEDTAVYYCYAYRWTTRYRYWGQGTLVTVSSGGGGSGGGSGGGGSGGGSHHHHHH | 7.6
26 | anti-DLL3 trispecific protein 3C05 (protein, part only; not given: anti-CD3 and anti-albumin domains, part only) chain, part: EVQLVESGGGLVQPGGSLTLSCVASGTSVSFLSMAWYRQAPGKKRELVAGISADGSTTYIDSVKGRFTISRDNAKNSVYLQMNSLRAEDTAVYYCYAYRWTTRRTYWGQGTLVTVSSGGGGSGGGSGGGGSGGGSHHHHHH | 8.2
27 | anti-DLL3 trispecific protein 3H06 (protein, part only; not given: anti-CD3 and anti-albumin domains, part only) chain, part: EVQLVESGGGLVQPGGSLTLSCAASGSSVSQLSMAWYRQAPGKKRELVAGISADGSTDYFDSVKGRFTISRDNAKNSVYLQMNSLRAEDTAVYYCYAYRWTTRGTYWGQGTLVTVSSGGGGSGGGSGGGGSGGGSHHHHHH | 8
28 | anti-DLL3 trispecific protein 3F05 (protein, part only; not given: CD3 binder and albumin binder, part only) chain, part: EVQLVESGGGLVQPGGSLTLSCAASGSKVSFLSMAWYRQAPGKKRELVAGISTDGSTDYIDSVKGRFTISRDNAKNSVYLQMNSLRAEDTAVYYCYAYRWTTRRTYWGQGTLVTVSSGGGGSGGGSGGGGSGGGSHHHHHH | 7.5
29 | anti-DLL3 trispecific protein 4F011 (protein, part only; not given: anti-CD3 and anti-albumin domains, part only) chain, part: EVQLVESGGGLVQPGGSLTLSCAASGSKVSFLSMAWYRQAPGKKRELVAGISADGSKDYIDSVKGRFTISRDNAKNSVYLQMNSLRAEDTAVYYCYAYRWTTRYTYWGQGTLVTVSSGGGGSGGGSGGGGSGGGSHHHHHH | 8.2
30 | anti-DLL3 trispecific protein 4D04 (protein, part only; not given: anti-CD3 fragment and anti-albumin sdAb, part only) chain, part: EVQLVESGGGLVQPGGSLTLSCAASGSSVSFLSIAWYRQAPGKKRELVAGISKDGSTDYIDSVKGRFTISRDNAKNSVYLQMNSLRAEDTAVYYCYAYRWTTRMTYWGQGTLVTVSSGGGGSGGGSGGGGSGGGSHHHHHH | 8.6
31 | anti-DLL3 trispecific protein 3C09 (protein, part only; not given: anti-CD3 and anti-albumin domains, part only) chain, part: EVQLVESGGGLVQPGGSLTLSCAASGSSVSFLSMAWYRQAPGKKRELVAGISADGSTIYIDSVKGRFTISRDNAKNSVYLQMNSLRAEDTAVYYCYAYRWRTRYTYWGQGTLVTVSSGGGGSGGGSGGGGSGGGSHHHHHH | 7.8
